Measurements as given in patent publication US20020193568.
Like-named read-outs stand apart in the source and are kept apart here.

What was measured:
[1] = biological target: LacI Pro320Ala Pro320Ala (Escherichia coli) (UniProt P03023); settings: wild-type inducer responsivity
[2] = biological target: LacI Gln60Gly (Escherichia coli) (UniProt P03023)
[3] = biological target: lac repressor (LacI) wild-type (Escherichia coli) (UniProt P03023); settings: no inducer; assay method not stated; cited from earlier work

Substance | binding signal (fold higher affinity than wild-type) [1] | Kd ([2]; 1 mM IPTG, described as wild-type affinity under these conditions) [nM] | Kd ([2]; no inducer, assay method not stated, refers to Falcon and Matthews 1999, cited from earlier work) [nM] | Kd [3] [nM]
lac operator DNA (LacO) | 10 |  |  | 
lac operator O1 (LacO) |  | > 100 | 0.004 | 0.012
